From IntAct's records for PubMed 20890305

B1: Mitogen-activated protein kinase kinase kinase 11 (Homo sapiens), Q16584 (parent)
chain: MEPLKSLFLKSPLGSWNGSGSGGGGGGGGGRPEGSPKAAGYANPVWTALFDYEPSGQDELALRKGDRVEVLSRDAAISGDEGWWAGQVGGQVGIFPSNYVSRGGGPPPCEVASFQELRLEEVIGIGGFGKVYRGSWRGELVAVKAARQDPDEDISVTAESVRQEARLFAMLAHPNIIALKAVCLEEPNLCLVMEYAAGGPLSRALAGRRVPPHVLVNWAVQIARGMHYLHCEALVPVIHRDLKSNNILLLQPIESDDMEHKTLKITDFGLAREWHKTTQMSAAGTYAWMAPEVIKASTFSKGSDVWSFGVLLWELLTGEVPYRGIDCLAVAYGVAVNKLTLPIPSTCPEPFAQLMADCWAQDPHRRPDFASILQQLEALEAQVLREMPRDSFHSMQEGWKREIQGLFDELRAKEKELLSREEELTRAAREQRSQAEQLRRREHLLAQWELEVFERELTLLLQQVDRERPHVRRRRGTFKRSKLRARDGGERISMPLDFKHRITVQASPGLDRRRNVFEVGPGDSPTFPRFRAIQLEPAEPGQAWGRQSPRRLEDSSNGERRACWAWGPSSPKPGEAQNGRRRSRMDEATWYLDSDDSSPLGSPSTPPALNGNPPRPSLEPEEPKRPVPAERGSSSGTPKLIQRALLRGTALLASLGLGRDLQPPGGPGRERGESPTTPPTPTPAPCPTEPPPSPLICFSLKTPDSPPTPAPLLLDLGIPVGQRSAKSPRREEEPRGGTVSPPPGTSRSAPGTPGTPRSPPLGLISRPRPSPLRSRIDPWSFVSAGPRPSPLPSPQPAPRRAPWTLFPDSDPFWDSPPANPFQGGPQDCRAQTKDMGAQAPWVPEAGP
B2: Merlin (Homo sapiens), P35240 (parent)
chain: MAGAIASRMSFSSLKRKQPKTFTVRIVTMDAEMEFNCEMKWKGKDLFDLVCRTLGLRETWFFGLQYTIKDTVAWLKMDKKVLDHDVSKEEPVTFHFLAKFYPENAEEELVQEITQHLFFLQVKKQILDEKIYCPPEASVLLASYAVQAKYGDYDPSVHKRGFLAQEELLPKRVINLYQMTPEMWEERITAWYAEHRGRARDEAEMEYLKIAQDLEMYGVNYFAIRNKKGTELLLGVDALGLHIYDPENRLTPKISFPWNEIRNISYSDKEFTIKPLDKKIDVFKFNSSKLRVNKLILQLCIGNHDLFMRRRKADSLEVQQMKAQAREEKARKQMERQRLAREKQMREEAERTRDELERRLLQMKEEATMANEALMRSEETADLLAEKAQITEEEAKLLAQKAAEAEQEMQRIKATAIRTEEEKRLMEQKVLEAEVLALKMAEESERRAKEADQLKQDLQEAREAERRAKQKLLEIATKPTYPPMNPIPAPLPPDIPSFNLIGDSLSFDFKDTDMKRLSMEIEKEKVEYMEKSKHLQEQLNELKTEIEALKLKERETALDILHNENSDRGGSSKHNTIKKLTLQSAKSRVAFFEEL

Variants of: B1
Settings: with merl_human NF2, P35240

Variant	effect of a mutation on the interaction
K144R	disrupting interaction

Variants of: B2
Settings: with MAP3K11, Q16584

Variant	effect of a mutation on the interaction
S518D	decreasing interaction
